Laboratory results published in publication PMC8635274.

What was measured:
mCherry-FKBP-Ubc9 [1] = molecular target: mCherry-FKBP-Ubc9 (UniProt P63279)
mCherry-FKBP-Ubc9 [2] = molecular target: mCherry-FKBP-Ubc9 (UniProt P63279); remark: listed apart in the source

KM of SUMOylation of RanGAP* by E2 (Ubc9), without scaffolds (mCherry-FKBP-Ubc9 [1]) [µM] | KM of SUMOylation of RanGAP by E2 (Ubc9), without scaffolds (mCherry-FKBP-Ubc9 [2]) [µM] | Substance
150 |  | FKBP-EGFP-RanGAP* (from UniProt P46060 398-587)
 | 2.5 | FKBP-RanGAP (from UniProt P46060 398-587)
